Data set [1] deals with T1, BoERF1L-His (His-BoERF1L; Methods: His-BoERF1) (Brassica oleracea, UniProt A0A0D3ABA8 1-210). Description: EMSA; EMSA: 10 µL with 2 µg protein, 20 fmol biotin-labeled DNA, 2 µL 5x EMSA/Gel-Shift Binding Buffer (GS005, Beyotime); 6% polyacrylamide gel; salt, pH and temperature not stated. The conditions noted are these: protein: recombinant, tags: His (Methods: C-terminal; pET-SUMO vector).

Data set [2] addresses T1, BoERF1L-His (His-BoERF1L; Methods: …). Description: EMSA; unlabeled WTpro at 20x, 30x, 40x competes dose-dependently; EMSA: 10 µL with 2 µg protein, 20 fmol biotin-labeled DNA, 2 µL 5x EMSA/Gel-Shift Binding Buffer (GS005, Beyotime); 6% polyacrylamide gel; salt, pH and temperature not stated. The conditions noted are these: protein: recombinant; tags: His (Methods: C-terminal; pET-SUMO vector); label: biotin. Background: A gel shift assay detects complexes by their altered migration in electrophoresis.

This note sets out measurements from article PMC10556095, “A natural mutation in the promoter of Ms-cd1 causes dominant male sterility in Brassica oleracea”.

T1 sequence (A0A0D3ABA8 entry or part of it): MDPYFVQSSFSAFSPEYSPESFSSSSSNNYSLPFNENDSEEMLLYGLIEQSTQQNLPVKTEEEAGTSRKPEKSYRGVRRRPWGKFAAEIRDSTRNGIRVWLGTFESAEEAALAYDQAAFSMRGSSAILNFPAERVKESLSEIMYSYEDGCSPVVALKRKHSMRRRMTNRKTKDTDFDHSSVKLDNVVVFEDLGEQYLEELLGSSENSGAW

B1: W7 (dsDNA)
DNA 1: CAGAAATTGACGGAAC
DNA 2: GTTCCGTCAATTTCTG
For B1, the binding result in data set [1] is “no binding”.

B2: WTpro (dsDNA)
DNA 1: GATACATGTAAGTGCAGGTAGCTCATGACAGAAATTGACGGAACACAGAGTTACTCTGATTCTATA
DNA 2: TATAGAATCAGAGTAACTCTGTGTTCCGTCAATTTCTGTCATGAGCTACCTGCACTTACATGTATC
Consider B2, for which, in data set [2], the binding result was “binds”.

B3: MTpro (dsDNA)
DNA 1: GATACATGTAAGTGCAGGTAGCTCATGCAGAAATTGACGGAACACAGAGTTACTCTGATTCTATA
DNA 2: TATAGAATCAGAGTAACTCTGTGTTCCGTCAATTTCTGCATGAGCTACCTGCACTTACATGTATC
For B3, in data set [1] (label: biotin), the binding result is on record as “no binding”.

B4: W1 (dsDNA)
DNA 1: GTGCAGGTAGCTCATG
DNA 2: CATGAGCTACCTGCAC
For B4, the binding result in data set [1] is “no binding”.
